Measurements: publication PMC2925043

How the values were obtained:
[1] = molecular target: EGFR (high-affinity site) (Homo sapiens) (UniProt P00533); details: cited from earlier work
[2] = molecular target: EGFR (low-affinity site) (Homo sapiens) (UniProt P00533); details: cited from earlier work
[3] = molecular target: Drosophila EGFR extracellular region lacking domain V (s-dEGFRΔV) (Drosophila melanogaster) (UniProt P04412)
[4] = molecular target: Drosophila EGFR extracellular region (s-dEGFR) with C-terminal His tag and AviTag, biotinylated (Drosophila melanogaster) (UniProt P04412); test: fluorescent ligand binding assay on plates
[5] = molecular target: dimerization-defective s-dEGFR variant (s-dEGFR^dim-arm), biotinylated (Drosophila melanogaster) (UniProt P04412); test: fluorescent ligand binding assay on plates

EGF (from UniProt P01133)
Kd [1]: 0.3 nM | Kd [2]: 2 nM

EGF-like domain of Spitz (SpitzEGF, residues 48-105) (ligand)
Kd [3]: 368 nM

SpitzEGF labeled with Alexa Fluor-488 (ligand)
KD of the high-affinity site (fit with two independent classes of site) [4]: 4.7 nM | Kd [4]: 49.5 nM | Kd [5]: 920 nM

Spitz_(EGFΔC), variant of SpitzEGF with a C-terminal truncation of six amino acids (ligand)
Kd [3]: 4370 nM
